Our source for the Kd values is patent US20200087414A1.

“And” between values parts separate entries of the source, which are not always exact repeats. Identical values can stand only once.

The target in assay [1] is FcgammaRIIB (CD32b), Y163 allotype (UniProt P31994). Nature of the assay: SPR. (Surface plasmon resonance follows binding to a sensor surface in real time, without labels.)
Assay [2] concerns the target FcgammaRIIIA (CD16a), F158 allotype (UniProt P08637). Put plainly: SPR.
The target in assay [3] is neonatal Fc receptor (FcRn) (UniProt P55899). Put plainly: SPR pH 6.0, Ab captured on goat anti-human IgG, FcRn flowed.

Broadly, the Kd is the constant that tells how readily two partners part at equilibrium. A low value points to tighter binding.

Chain of neonatal Fc receptor (FcRn) (P55899 24-297 limits assumed, chain 1 of 2): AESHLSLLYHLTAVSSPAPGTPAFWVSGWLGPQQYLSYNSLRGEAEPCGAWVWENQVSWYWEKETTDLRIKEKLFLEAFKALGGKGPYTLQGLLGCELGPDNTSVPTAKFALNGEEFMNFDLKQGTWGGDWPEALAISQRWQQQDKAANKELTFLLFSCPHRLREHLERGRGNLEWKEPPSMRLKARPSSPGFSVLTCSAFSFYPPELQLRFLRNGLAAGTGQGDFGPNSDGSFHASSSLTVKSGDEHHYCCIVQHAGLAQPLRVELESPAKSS
Chain of neonatal Fc receptor (FcRn) (P61769 21-119 limits assumed, chain 2 of 2, further chain): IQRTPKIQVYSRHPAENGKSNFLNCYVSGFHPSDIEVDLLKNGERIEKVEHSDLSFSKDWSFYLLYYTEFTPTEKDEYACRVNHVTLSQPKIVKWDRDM
Chain of FcgammaRIIB (CD32b), Y163 allotype (P31994 43-217 limits assumed): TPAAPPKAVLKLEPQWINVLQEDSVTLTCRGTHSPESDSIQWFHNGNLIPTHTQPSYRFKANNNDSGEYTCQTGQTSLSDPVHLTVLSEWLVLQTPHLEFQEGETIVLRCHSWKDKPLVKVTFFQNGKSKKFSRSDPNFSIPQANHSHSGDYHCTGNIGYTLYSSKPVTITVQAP
Chain of FcgammaRIIIA (CD16a), F158 allotype (P08637 17-208 limits assumed): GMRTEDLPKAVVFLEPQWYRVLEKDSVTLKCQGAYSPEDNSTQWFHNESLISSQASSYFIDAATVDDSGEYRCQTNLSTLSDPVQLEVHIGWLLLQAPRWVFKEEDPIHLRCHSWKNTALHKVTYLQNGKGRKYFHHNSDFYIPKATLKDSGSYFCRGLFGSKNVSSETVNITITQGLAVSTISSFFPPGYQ

With “T350V_L351Y_S400E_F405S_Y407V / T350V_T366L_N390R_K392M_T394W (antibody)”, the Kd was determined as 0.83 µM in assay [1] and 0.42 µM in assay [2].

For the substance “Y349C_T350V_L351Y_S400E_F405A_Y407V / T350V_S354C_T366L_N390R_K392M_T394W (antibody)”, the figures for the Kd in assay [1] and in assay [2] were 0.95 µM and 0.42 µM, respectively.

For the substance “AZ133 (A: L351Y/F405A/Y407V, B: T366L/K392M/T394W) (antibody)”, the Kd in assay [2] was 0.42 µM; in assay [3], 5 µM. As to “Herceptin WT (wild-type IgG1 anti-HER-2/neu antibody)”, the Kd in assay [1] turned out to be 1.7 µM; in assay [3] it was 3.7 µM.

As for “Y349C_F405A_Y407V / S354C_T366L_T394W (antibody)”, the Kd in assay [1] was found to be 1.2 µM; in assay [2], 0.58 µM. The like results for “Q347R_T350V_L351Y_S400E_F405A_Y407V / T350V_K360E_T366L_N390R_K392M_T394W (antibody)” were, in that order, 0.92 µM and 0.42 µM. Consider “T350V_L351Y_S400E_F405A_Y407V / T350V_L351Y_T366L_N390R_K392M_T394W (antibody)”, for which, in assay [1], the Kd worked out at 0.71 µM. With “T350V_L351Y_S400R_F405A_Y407V / T350V_T366L_N390E_K392M_T394W (antibody)”, the dissociation constant Kd in assay [1] stood at 0.89 µM; in assay [2], 0.42 µM.

As to “T350V_L351Y_S400R_F405A_Y407V / T350V_T366L_N390D_K392M_T394W (antibody)”, the Kd in assay [1] amounted to 0.94 µM. This lies in the sub-micromolar range.

For “Y349C_D399C_F405A_Y407V / S354C_T366L_K392C_T394W (antibody)”, in assay [2], the Kd turned out to be 0.63 µM. Substance F405A_Y407V / T366L_T394W (antibody) registered a Kd in assay [2] of 0.48 µM. The Kd values of the last two substances are within 1.5-fold of each other. Regarding “T350V_L351Y_S400E_F405A_Y407V / T350V_T366L_N390R_K392M_T394W (antibody)”, the Kd in assay [1] was 0.9 µM; in assay [2], 0.45 µM and 0.42 µM; in assay [3] it was 5 µM. With “T350V_S400E_F405A_Y407V / T350V_T366L_N390R_K392M_T394W (antibody)”, the Kd in assay [1] was determined as 1 µM; in assay [2] it was 0.45 µM. Consider “T350V_L351Y_S400R_F405A_Y407V / T350V_T366L_K392M_T394W (antibody)”, for which the Kd in assay [1] was 0.89 µM. With “AZ138 (A: F405A/Y407V, B: T366L/K392M/T394W) (antibody)”, in assay [2], the Kd is 0.46 µM. In other words, the sub-micromolar range.

As to “D399C_F405A_Y407V / T366L_K392C_T394W (antibody)”, the Kd in assay [1] came out at 1.2 µM; in assay [2], 0.51 µM.

“AZ3002 (A: T350V/L351Y/F405A/Y407V, B: T350V/T366L/K392M/T394W) (antibody)”: the equilibrium dissociation constant (Kd) in assay [1] was found to be 1.2 µM; in assay [2], 0.46 µM; in assay [3], 4.3 µM.

In the case of “T350V_F405A_Y407V / T350V_T366L_K392M_T394W (antibody)”, the Kd in assay [1] was 1 µM.

With “AZ3003 (A: T350V/L351Y/F405A/Y407V, B: T350V/T366L/K392L/T394W) (antibody)”, the Kd is 0.99 µM in assay [1] and 3.9 µM in assay [3]. Substance “T350V_L351Y_S400E_F405T_Y407V / T350V_T366L_N390R_K392M_T394W (antibody)” registered a Kd in assay [1] of 0.67 µM.

Consider “T350V_L351Y_S400E_F405A_Y407V / T350V_T366L_N390R_K392F_T394W (antibody)”, for which the Kd in assay [1] worked out at 0.71 µM. On the same count and under the same terms, as for “T350V_L351Y_S400E_F405A_Y407V / T350V_T366L_N390R_K392L_T394W (antibody)”, the figure is 0.91 µM.

Turning to “Y349C_T350V_F405A_Y407V / T350V_S354C_T366L_K392M_T394W (antibody)”, the Kd in assay [2] was found to be 0.46 µM; in assay [3], 4.1 µM.
